Assay results from paper PMC6504948.

Biological target: CD19 on CD19-positive tumor cells (Nalm6, Raji) (human (endogenous in Nalm6 and Raji)) (UniProt P15391)
Chain of UniProt P15391 (P15391 20-556): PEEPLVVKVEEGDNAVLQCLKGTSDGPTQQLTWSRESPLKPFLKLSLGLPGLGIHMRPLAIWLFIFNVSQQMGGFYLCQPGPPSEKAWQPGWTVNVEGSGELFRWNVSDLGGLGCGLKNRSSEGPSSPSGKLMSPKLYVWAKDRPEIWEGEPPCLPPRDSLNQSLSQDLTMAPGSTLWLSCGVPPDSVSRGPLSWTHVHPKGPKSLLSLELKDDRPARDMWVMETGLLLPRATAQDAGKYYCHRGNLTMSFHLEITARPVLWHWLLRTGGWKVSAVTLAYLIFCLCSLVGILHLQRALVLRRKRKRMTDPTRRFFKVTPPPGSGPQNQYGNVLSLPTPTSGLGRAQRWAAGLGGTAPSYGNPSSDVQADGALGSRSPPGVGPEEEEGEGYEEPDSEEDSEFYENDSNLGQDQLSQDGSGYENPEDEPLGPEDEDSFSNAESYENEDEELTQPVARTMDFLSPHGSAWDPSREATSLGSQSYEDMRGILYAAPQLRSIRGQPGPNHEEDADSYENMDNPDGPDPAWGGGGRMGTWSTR

conversion of transduced primary T cells into a CD69+/CD25+ phenotype after overnight co-culture with Nalm6 cells: 50%
Substance: γ-TRuC (CD19-specific T cell receptor fusion construct: FMC63 scFv fused to full-length human CD3γ) (from UniProt P09693 23-182)
